Data from patent US6933132.
pKd: −log10 of the molar value.

Columns and labels:
[1] = target: surface of a PHA-activated T cell (unidentified binding site for soluble attractin-1); assay: Scatchard analysis, 125I-labeled soluble attractin on cells, 1 hr at 4 C
[2] = target: surface of a resting T cell (unidentified binding site for soluble attractin-1); assay: as above

pKd [1]: 10.30 to 11.30
molecules bound per cell (molecules per cell) [1]: 2000
pKd [2]: 10.30 to 11.30
molecules bound per cell (molecules per cell) [2]: 1000
Substance: purified natural serum soluble attractin-1, 125I-labeled (from UniProt O75882 1-1267) (ligand)
